We go through three substances from US20250152732A1.

The target of the experiment is target ligand expressed on MutuDC1940 cells. In words: cell-based or functional assay.

“antibody-bound lipid nanoparticle carrying a fragment of the NLDC145 antibody conjugated with the membrane scaffold protein MSP1E3D1 (scFv)”: the relative expression level of the Firefly luciferase gene against general lipid nanoparticles, MutuDC1940 cells, 10% FBS, LP ratio 5,000:1 to 100,000:1 fell in the range of 5 to 20 times and the relative expression level of the Firefly luciferase gene against general lipid nanoparticles, MutuDC1940 cells, no serum, LP ratio 5,000:1 to 10,000:1 was 5 to 20 times.

In the case of “antibody-bound lipid nanoparticle carrying a fragment of the NLDC145 antibody conjugated with the membrane scaffold protein ApoE3 (scFv)”, the relative expression level of the Firefly luciferase gene against general lipid nanoparticles, MutuDC1940 cells, 10% FBS, LP ratio 500:1 to 100,000:1 fell in the range of 5 to 20 times and the relative expression level of the Firefly luciferase gene against general lipid nanoparticles, MutuDC1940 cells, no serum, LP ratio 500:1 to 1,000:1 is 5 to 20 times.

With “antibody-bound lipid nanoparticle carrying a fragment of the NLDC145 antibody conjugated with the membrane scaffold protein ApoA1 (scFv)”, the relative expression level of the Firefly luciferase gene against general lipid nanoparticles, MutuDC1940 cells, 10% FBS, LP ratio 1,000:1 to 100,000:1 fell in the range of 5 to 20 times and the relative expression level of the Firefly luciferase gene against general lipid nanoparticles, MutuDC1940 cells, no serum, LP ratio 500:1 to 10,000:1 fell in the range of 5 to 20 times.
